Assay results as given in IntAct's records for PubMed 23478064.

B1: Eukaryotic translation initiation factor 4 gamma 2 (Homo sapiens), P78344-1 (parent)
chain: MESAIAEGGASRFSASSGGGGSRGAPQHYPKTAGNSEFLGKTPGQNAQKWIPARSTRRDDNSAANNSANEKERHDAIFRKVRGILNKLTPEKFDKLCLELLNVGVESKLILKGVILLIVDKALEEPKYSSLYAQLCLRLAEDAPNFDGPAAEGQPGQKQSTTFRRLLISKLQDEFENRTRNVDVYDKRENPLLPEEEEQRAIAKIKMLGNIKFIGELGKLDLIHESILHKCIKTLLEKKKRVQLKDMGEDLECLCQIMRTVGPRLDHERAKSLMDQYFARMCSLMLSKELPARIRFLLQDTVELREHHWVPRKAFLDNGPKTINQIRQDAVKDLGVFIPAPMAQGMRSDFFLEGPFMPPRMKMDRDPLGGLADMFGQMPGSGIGTGPGVIQDRFSPTMGRHRSNQLFNGHGGHIMPPTQSQFGEMGGKFMKSQGLSQLYHNQSQGLLSQLQGQSKDMPPRFSKKGQLNADEISLRPAQSFLMNKNQVPKLQPQITMIPPSAQPPRTQTPPLGQTPQLGLKTNPPLIQEKPAKTSKKPPPSKEELLKLTETVVTEYLNSGNANEAVNGVREMRAPKHFLPEMLSKVIILSLDRSDEDKEKASSLISLLKQEGIATSDNFMQAFLNVLDQCPKLEVDIPLVKSYLAQFAARAIISELVSISELAQPLESGTHFPLFLLCLQQLAKLQDREWLTELFQQSKVNMQKMLPEIDQNKDRMLEILEGKGLSFLFPLLKLEKELLKQIKLDPSPQTIYKWIKDNISPKLHVDKGFVNILMTSFLQYISSEVNPPSDETDSSSAPSKEQLEQEKQLLLSFKPVMQKFLHDHVDLQVSALYALQVHCYNSNFPKGMLLRFFVHFYDMEIIEEEAFLAWKEDITQEFPGKGKALFQVNQWLTWLETAEEEESEEEAD

Variants of: B1
Conditions: with if4a1_human EIF4A1, P60842
if4a1_human EIF4A1, P60842, sequence (P60842 whole entry): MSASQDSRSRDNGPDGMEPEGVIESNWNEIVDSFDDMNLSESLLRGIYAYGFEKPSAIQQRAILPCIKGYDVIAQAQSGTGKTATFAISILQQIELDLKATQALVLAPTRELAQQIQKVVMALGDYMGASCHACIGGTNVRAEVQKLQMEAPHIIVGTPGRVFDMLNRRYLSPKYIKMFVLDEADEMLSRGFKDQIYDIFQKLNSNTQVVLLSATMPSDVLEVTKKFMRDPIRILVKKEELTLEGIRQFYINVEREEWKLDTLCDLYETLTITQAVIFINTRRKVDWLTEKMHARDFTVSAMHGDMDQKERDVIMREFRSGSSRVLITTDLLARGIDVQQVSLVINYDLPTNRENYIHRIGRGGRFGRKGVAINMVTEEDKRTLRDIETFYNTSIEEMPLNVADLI

| effect of a mutation on the interaction | Variant |
| --- | --- |
| disrupting interaction strength | N86A |
| disrupting interaction strength | F296A |
| disrupting interaction strength | E125K |
